Here are results for two proteins from patent US20050032185.

Series [1] concerns the target GST-PKBα (full length human protein kinase Bα with N-terminal glutathione S-transferase, from unstimulated 293 cells) [GST: P08515].

GST-PKBα (full length human protein kinase Bα with N-terminal glutathione S-transferase, from unstimulated 293 cells) [GST: P08515], sequence (P08515 whole entry, looked up): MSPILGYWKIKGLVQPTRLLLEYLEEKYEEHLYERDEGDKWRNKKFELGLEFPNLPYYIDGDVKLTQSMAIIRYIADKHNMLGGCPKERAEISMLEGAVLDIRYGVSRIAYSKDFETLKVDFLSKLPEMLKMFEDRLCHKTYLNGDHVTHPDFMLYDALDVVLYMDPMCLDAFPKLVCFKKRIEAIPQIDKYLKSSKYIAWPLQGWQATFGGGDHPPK
protein kinase Bγ, sequence (Q9Y243 2-479): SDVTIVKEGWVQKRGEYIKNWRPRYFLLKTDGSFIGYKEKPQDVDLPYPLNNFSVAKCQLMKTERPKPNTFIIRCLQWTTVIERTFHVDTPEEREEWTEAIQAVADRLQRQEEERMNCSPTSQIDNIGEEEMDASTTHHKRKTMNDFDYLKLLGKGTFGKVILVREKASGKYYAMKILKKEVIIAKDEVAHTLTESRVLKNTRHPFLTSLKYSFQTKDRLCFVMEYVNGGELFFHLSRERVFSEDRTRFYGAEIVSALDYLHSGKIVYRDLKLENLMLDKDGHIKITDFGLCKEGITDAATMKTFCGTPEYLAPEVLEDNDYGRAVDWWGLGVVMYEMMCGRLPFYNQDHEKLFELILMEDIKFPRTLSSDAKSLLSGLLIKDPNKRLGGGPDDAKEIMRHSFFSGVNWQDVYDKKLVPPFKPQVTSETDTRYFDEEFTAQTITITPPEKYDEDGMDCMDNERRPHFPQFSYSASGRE

B1: PDK1 (form and source not specified in the sentence) (enzyme, UniProt O15530 1-556, looked up, species assumed)
3-phosphoinositide-dependent protein kinase 1: MARTTSQLYDAVPIQSSVVLCSCPSPSMVRTQTESSTPPGIPGGSRQGPAMDGTAAEPRPGAGSLQHAQPPPQPRKKRPEDFKFGKILGEGSFSTVVLARELATSREYAIKILEKRHIIKENKVPYVTRERDVMSRLDHPFFVKLYFTFQDDEKLYFGLSYAKNGELLKYIRKIGSFDETCTRFYTAEIVSALEYLHGKGIIHRDLKPENILLNEDMHIQITDFGTAKVLSPESKQARANSFVGTAQYVSPELLTEKSACKSSDLWALGCIIYQLVAGLPPFRAGNEYLIFQKIIKLEYDFPEKFFPKARDLVEKLLVLDATKRLGCEEMEGYGPLKAHPFFESVTWENLHQQTPPKLTAYLPAMSEDDEDCYGNYDNLLSQFGCMQVSSSSSSHSLSASDTGLPQRSGSNIEQYIHDLDSNSFELDLQFSEDEKRLLLEKQAGGNPWHQFVENNLILKMGPVDKRKGLFARRRQLLLTEGPHLYYVDPVNKVLKGEIPWSQELRPEAKNFKTFFVHTPNRTYYLMDPSGNAHKWCRKIQEVWRQRYQSHPDAAVQ
As to B1, the phosphorylation entry in the series on p70 S6 kinase is on record as “PDK1 has been shown by us to phosphorylate p70 S6 kinase in the absence of InsPtd(3,4,5)P3”. Besides, the phosphorylation and activation result was “PDK1 phosphorylates and activates not only PKBα but also PKBβ and PKBγ” with protein kinase Bβ; “PDK1 phosphorylates and activates not only PKBα but also PKBβ and PKBγ” in the series with protein kinase Bγ.

B2: GST-DSTPK61 (residues 1-752 of Drosophila Serine/Threonine Protein Kinase-61, expressed in E. coli) (protein)
chain: MKCKSWSNKINNYVVRKIKSIKINGTQQQLQLPGSGASGIAAAAVITVASDCGENCSSNGTEHQQHFNIATTTATSATEATMPAMAKEKASATVSLGESNFRDINLKDLAVVVEAASRLHHQQNVCGCGAVSSTENNNNSRYGSSKYLTNGHTSPLAAAVASNSSSVATTPHCRMLHNCSLQQYQNDIRQQTEILDMLRQQHQQGYQSQQQQQQPQQQQEQQQQQEQSQQQQQLQNPAPRRSPNDFIFGRYIGEGSYSIVYLAVDIHSRREYAIKVCEKRLILRERKQDYIKREREVMHQMTNVPGFVNLSCTFQDQRSLYFVMTYARKGDMLPYINRVGSFDVACTRHYAAELLLACEHMHRRNVVHRDLKPENILLDEDMHTLIADFGSAKVMTAHERALATEHCSEQRRSNSDEDDEDSDRLENEDEDFYDRDSEELDDGDDEQQQEEMDSPRHRQRRYNRHRKASFVGTAQYVSPEVLQNGPITPAADLWALGCIVYQMIAGLPPFRGSNDYVIFKEILDCAVDFPQGFDKDAEDLVRKLLRVDPRDRLGAQDEFGYYESIRAHPFFAGIDWQTLRQQTPPPIYPYLPGVSQDEDFRSSYTVPGDLEPGLDERQISRLLSAELGVGSSVAMPVKRSTAKNSFDLNDAEKLQRLEQQKTDKWHVFADGEVILKKGFVNKRKGLFARKRMLLLTTGPRLIYIDPVQMIKKGEIPWSPDLRAEYKNFKIFFVHTPNRTYYLDDPEGYAIHW
Take B2: in series [1], the “increase in GST-PKBα activity at maximal phosphorylation” value is “paralleled by a 35 fold increase in activity”, the “maximal phosphorylation of GST-PKBα (mol phosphate per mol protein)” value was “the phosphorylation of GST-PKBα reached 0.75 mol phosphate per mol protein” and the “specific activity towards GST-PKBα in the presence of PtdIns(3,4,5)P3” value is “bacterially expressed GST-DST PK61 (280 U/mg)”.
